Earlier results in patent US6835389B1, “Powder Composition for nasal administration” (Teijin Limited, priority 1998, dated 2004).

Details: 10 units of insulin to rabbits, nasal, Example 4 of Kokoku No. 62-42888

## insulin
  absorption rate calculated from the AUC: ≤ 10%
  maximum blood concentration: ≤ 200 μU/ml
  maximum blood concentration relative to that of the injection administration: about 20%
